Assay [1] concerns the target HLA-B*58:01. In words: IEDB peptide-MHC binding, purified MHC/competitive/radioactivity; filed as Kd, often an IC50 or EC50 that approximates it; ≥ and ≤ were set here for values at or beyond the usual limits of such assays.
The target of a further assay is HLA-A*02:17. The description is as above.
A further assay concerns the target HLA-A*02:03. The assay is described as above.
The target of a further assay is HLA-A*32:01. The assay is described as above.
The target of assay [2] is HLA-B*57:01. In words: IEDB peptide-MHC binding, purified MHC/direct/fluorescence; filed as Kd, often an IC50 or EC50 that approximates it; ≥ and ≤ were set here for values at or beyond the usual limits of such assays.
A further assay addresses HLA-B*15:17. Described as above.
For assay [3], the target named is HLA-B*58:01. The assay is described as above.
A further assay deals with HLA-A*11:01. In words: IEDB peptide-MHC binding, purified MHC/competitive/fluorescence; ≥ and ≤ were set here for values at or beyond the usual limits of such assays.
Assay [4] has as its target HLA-B*57:01. In words: IEDB peptide-MHC binding, purified MHC/competitive/radioactivity; filed as Kd, often an IC50 or EC50 that approximates it; ≥ and ≤ were set here for values at or beyond the usual limits of such assays.
Assay [5] deals with HLA-A*02:01. The description is as above.
In a further assay the target is HLA-A*02:11. In words: IEDB peptide-MHC binding, purified MHC/direct/fluorescence; filed as Kd, often an IC50 or EC50 that approximates it; ≥ and ≤ were set here for values at or beyond the usual limits of such assays. Conditions: source organism: Orthohantavirus tulaense.
The target in assay [6] is HLA-A*02:01. Described as above. The note with it: source organism: Orthohantavirus andesense.
The target in another assay is HLA-A*02:19. The description is as above. The note with it: source organism: Orthohantavirus tulaense.
Another assay has as its target HLA-A*02:12. Described as above. The note with it: source organism: Orthohantavirus tulaense.
Another assay addresses HLA-B*48:01. Described as above.
The next assay concerns the target HLA-B*46:01. Described as above. Conditions: source organism: Dengue virus.
A further assay deals with HLA-A*30:02. In words: IEDB peptide-MHC binding, purified MHC/competitive/radioactivity; filed as Kd, often an IC50 or EC50 that approximates it; ≥ and ≤ were set here for values at or beyond the usual limits of such assays. Conditions: source organism: Dengue virus 2 Jamaica/1409/1983.
In a further assay the target is HLA-B*27:05. In words: IEDB peptide-MHC binding, purified MHC/direct/fluorescence; filed as Kd, often an IC50 or EC50 that approximates it; ≥ and ≤ were set here for values at or beyond the usual limits of such assays. The note with it: source organism: Francisella tularensis subsp. holarctica LVS.
The target in a further assay is HLA-A*68:02. In words: IEDB peptide-MHC binding, purified MHC/competitive/fluorescence; filed as Kd, often an IC50 or EC50 that approximates it; ≥ and ≤ were set here for values at or beyond the usual limits of such assays. The note with it: source organism: Cryptosporidium parvum Iowa II.
Assay [7] has as its target HLA-A*24:02. In words: IEDB peptide-MHC binding, purified MHC/competitive/fluorescence; ≥ and ≤ were set here for values at or beyond the usual limits of such assays. The note with it: source organism: Vaccinia virus.
Assay [8] has as its target HLA-A*24:02. In words: IEDB peptide-MHC binding, purified MHC/competitive/radioactivity; filed as Kd, often an IC50 or EC50 that approximates it; ≥ and ≤ were set here for values at or beyond the usual limits of such assays. The note with it: source organism: Dengue virus 1 Singapore/S275/1990.
A further assay has as its target HLA-B*15:01. The description is as above.
In another assay the target is HLA-A*02:06. Described as above. Conditions: source organism: Dengue virus 2 Peru/IQT2913/1996.
In another assay the target is HLA-B*08:01. The assay is described as above. The note with it: source organism: Dengue virus 2 Peru/IQT2913/1996.
Where [9] appears, read: source organism: Dengue virus 2 Jamaica/1409/1983.
Setting [10] is: source organism: Dengue virus 3 China/80-2/1980.
The mark [11] stands for this setting: source organism: Dengue virus 3 Martinique/1243/1999.
[12] abbreviates: source organism: Marburg virus - Musoke, Kenya, 1980.
The mark [13] stands for this setting: source organism: West Nile virus.
The mark [14] stands for this setting: source organism: Dengue virus 4 Dominica/814669/1981.
[15] abbreviates: source organism: Yellow fever virus.
[16] abbreviates: source organism: Vaccinia virus.
The mark [17] stands for this setting: source organism: Dengue virus 4 Philippines/H241/1956.
Setting [18] is: source organism: Vibrio parahaemolyticus.
Where [19] appears, read: source organism: Dengue virus 1 Singapore/S275/1990.
Where [20] appears, read: source organism: Dengue virus 2 Thailand/NGS-C/1944.

Consider WMSSEGAWKH, for which, in the assay with HLA-B*58:01 [1] (setting [9]), the Kd (usually a measure of binding affinity in units of concentration) turned out to be 215 nM.

As for KLEKASLIEV, the dissociation constant Kd in the assay with HLA-A*02:17 (setting [10]) was 1140 nM.

For the sequence SMINGVVKL, the Kd with HLA-A*02:17 (setting [10]) was determined as 425 nM; in the assay with HLA-A*02:03 (setting [11]), 18.4 nM; with HLA-A*32:01 (setting [11]), 1490 nM.

In the case of RSVALVPHV, the Kd with HLA-B*58:01 [1] (setting [9]) came out at 8.81 nM.

As to ATAVNQECW, the Kd with HLA-B*57:01 [2] (setting [12]) was determined as 122 nM; with HLA-B*15:17 (setting [12]), 4.1 nM; with HLA-B*58:01 [3] (setting [12]), 51.6 nM.

SIPLGVIHN: the IC50 (in general, the midpoint of a concentration-inhibition curve) in the assay with HLA-A*11:01 (source organism: Zaire ebolavirus) is ≥ 158000 nM.

Consider ASGKLITEW, for which the results for the Kd with HLA-B*57:01 [4] (setting [9]) and with HLA-B*58:01 [1] (setting [9]) were 4.7 nM and 13.5 nM, respectively.

For KLFMALVAFL, the Kd with HLA-A*02:17 (setting [9]) turned out to be 51.8 nM; with HLA-A*02:01 [5] (setting [9]), 46.6 nM; with HLA-A*02:03 (setting [9]), 3.35 nM.

In turn, KSFLVHREW displayed a Kd with HLA-B*15:17 (setting [13]) of 5.7 nM.

As for ALSEGVYRI, the Kd with HLA-A*02:17 (setting [14]) stood at 172 nM; with HLA-A*02:01 [5] (setting [14]), 2.88 nM; in the assay with HLA-A*02:03 (setting [14]), 17.3 nM.

As for LAVMGDAAW, the Kd was 35.5 nM with HLA-B*57:01 [2] (setting [15]) and 27 nM in the assay with HLA-B*15:17 (setting [15]).

As for KLYEGDLRV, the Kd with HLA-A*02:11 was ≤ 1 nM; with HLA-A*02:01 [6] it was ≤ 1 nM; with HLA-A*02:19, 8 nM; in the assay with HLA-A*02:12 it was 5 nM.

For GRMEKKTWK, the Kd with HLA-B*48:01 (setting [13]) was ≥ 20000 nM.

With LASSLLKNDI, the Kd with HLA-B*57:01 [4] (setting [9]) worked out at 1280 nM; with HLA-B*58:01 [1] (setting [9]) it was 717 nM.

The sequence VGVVVSTNR displayed a 50% inhibitory concentration (IC50) in the assay with HLA-A*11:01 (setting [16]) of 21500 nM.

As for KLQLKGMSY, the figures for the dissociation constant Kd with HLA-B*46:01 and in the assay with HLA-A*30:02 were ≥ 20000 nM and 131 nM, respectively.

Turning to ATGPVLTLW, the Kd in the assay with HLA-B*57:01 [4] (setting [17]) is 2.48 nM; in the assay with HLA-B*58:01 [1] (setting [17]), 0.422 nM.

Turning to ALLLLVAHYA, the dissociation constant (Kd) with HLA-A*02:17 (setting [9]) is ≥ 70400 nM; with HLA-A*02:01 [5] (setting [9]), 1330 nM.

In the case of SMAMTCIAV, the Kd came out at 74 nM with HLA-A*02:17 (setting [17]), 11.9 nM in the assay with HLA-A*02:01 [5] (setting [17]) and 4.07 nM with HLA-A*02:03 (setting [17]).

With KRLSVNQKY, the Kd is ≥ 20000 nM with HLA-B*48:01 (source organism: Francisella tularensis subsp. holarctica LVS) and 62.2 nM with HLA-B*27:05.

For LTSLGKAVHQ, the dissociation constant (Kd) in the assay with HLA-B*57:01 [4] (setting [17]) is ≥ 70400 nM.

As to VTRLENLMW, the Kd with HLA-B*57:01 [4] (setting [9]) was 3.79 nM.

Turning to TVIPFYFVW, the Kd with HLA-B*57:01 [2] (setting [18]) came to 275 nM; in the assay with HLA-B*15:17 (setting [18]), 6.8 nM; with HLA-B*58:01 [3] (setting [18]), 41.3 nM.

Regarding FTAYYLILA, the Kd with HLA-A*68:02 is 9.7 nM.

Consider PYEGGKVFA, for which the values for the IC50 in the assay with HLA-A*24:02 [7] and in the assay with HLA-A*11:01 (setting [16]) were 13900 nM and ≥ 118000 nM, respectively.

On to KQIQRVETW, for which the Kd with HLA-A*24:02 [8] is 8580 nM; in the assay with HLA-B*57:01 [4] (setting [19]), 44.1 nM; with HLA-B*15:01 (setting [19]), 67.8 nM; in the assay with HLA-B*58:01 [1] (setting [19]), 10.8 nM; in the assay with HLA-A*32:01 (setting [19]) it was 21.1 nM.

As to FLDLPLPWA, the figures for the Kd with HLA-A*02:17 (setting [17]) and with HLA-A*02:01 [5] (setting [17]) were 108 nM and 10.4 nM, respectively.

LMMTTIGIVL: the Kd in the assay with HLA-A*02:17 (setting [20]) was found to be 1190 nM; in the assay with HLA-A*02:01 [5] (setting [20]) it was 28.9 nM; with HLA-A*02:06 it was 30.8 nM; with HLA-B*08:01, 5900 nM; with HLA-B*15:01 (source organism: Dengue virus 2 Peru/IQT2913/1996), 21.7 nM.

Values taken from the Immune Epitope Database (IEDB).
